Measured values reported in patent publication US6645728.

T1: kinase-deficient IKKα (K44M), Q60680
T1 chain: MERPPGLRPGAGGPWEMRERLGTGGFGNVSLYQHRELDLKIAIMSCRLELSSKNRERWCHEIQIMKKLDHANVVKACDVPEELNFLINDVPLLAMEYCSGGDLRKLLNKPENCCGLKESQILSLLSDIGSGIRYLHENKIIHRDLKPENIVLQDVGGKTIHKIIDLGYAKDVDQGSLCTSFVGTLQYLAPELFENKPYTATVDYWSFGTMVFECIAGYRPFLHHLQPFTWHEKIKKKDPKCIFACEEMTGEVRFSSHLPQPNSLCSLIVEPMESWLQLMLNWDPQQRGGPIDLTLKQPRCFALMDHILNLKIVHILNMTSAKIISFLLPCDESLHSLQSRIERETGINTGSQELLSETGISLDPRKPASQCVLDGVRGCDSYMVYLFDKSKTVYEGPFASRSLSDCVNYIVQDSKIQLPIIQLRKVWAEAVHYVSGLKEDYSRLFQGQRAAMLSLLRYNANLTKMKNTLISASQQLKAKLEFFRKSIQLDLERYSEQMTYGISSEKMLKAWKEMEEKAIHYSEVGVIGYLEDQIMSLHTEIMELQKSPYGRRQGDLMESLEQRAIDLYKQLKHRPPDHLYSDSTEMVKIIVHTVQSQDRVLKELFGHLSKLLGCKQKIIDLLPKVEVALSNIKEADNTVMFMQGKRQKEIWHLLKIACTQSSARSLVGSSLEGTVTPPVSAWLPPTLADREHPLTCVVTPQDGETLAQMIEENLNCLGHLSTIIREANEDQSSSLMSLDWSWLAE

T2: IKKα (as present in transfected 293 cells)
T2 sequence (O15111 1-745, species assumed, looked up): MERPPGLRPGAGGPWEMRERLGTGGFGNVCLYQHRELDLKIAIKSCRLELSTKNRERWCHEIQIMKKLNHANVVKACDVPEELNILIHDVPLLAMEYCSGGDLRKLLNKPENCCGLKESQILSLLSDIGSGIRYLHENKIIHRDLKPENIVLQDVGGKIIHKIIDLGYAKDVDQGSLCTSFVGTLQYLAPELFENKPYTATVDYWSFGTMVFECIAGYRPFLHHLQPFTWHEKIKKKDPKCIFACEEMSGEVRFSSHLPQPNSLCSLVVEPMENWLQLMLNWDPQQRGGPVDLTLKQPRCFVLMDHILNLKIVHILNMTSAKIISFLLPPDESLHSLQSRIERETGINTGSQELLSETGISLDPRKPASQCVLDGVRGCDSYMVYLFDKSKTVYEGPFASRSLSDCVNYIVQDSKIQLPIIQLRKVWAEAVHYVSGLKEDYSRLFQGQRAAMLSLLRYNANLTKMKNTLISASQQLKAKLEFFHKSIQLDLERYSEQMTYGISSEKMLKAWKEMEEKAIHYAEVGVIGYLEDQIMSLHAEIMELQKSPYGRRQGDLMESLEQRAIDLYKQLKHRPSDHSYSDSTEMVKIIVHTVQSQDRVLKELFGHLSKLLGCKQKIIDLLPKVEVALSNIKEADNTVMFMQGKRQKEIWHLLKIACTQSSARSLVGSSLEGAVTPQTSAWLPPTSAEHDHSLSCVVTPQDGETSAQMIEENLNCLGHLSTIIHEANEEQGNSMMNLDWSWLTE


How the values were obtained:
[1] = target: T1, kinase-deficient IKKα (K44M), Q60680
[2] = target: T2, IKKα (as present in transfected 293 …)

| Protein | phosphorylation of coimmunoprecipitated IKKα (K44M) in immunocomplex kinase reaction [1] | IKKα activity (in vitro kinase reaction on GST-IκBα (1-62)) [2] |
| --- | --- | --- |
| Myc-NIK (protein) MAVMEMACPGAPGSAVGQQKELPKPKEKTPPLGKKQSSVYKLEAVEKSPVFCGKWEILNDVITKGTAKEGSEAGPAAISIIAQAECENSQEFSPTFSERIFIAGSKQYSQSESLDQIPNNVAHATEGKMARVCWKGKRRSKARKKRKKKSSKSLAHAGVALAKPLPRTPEQESCTIPVQEDESPLGAPYVRNTPQFTKPLKEPGLGQLCFKQLGEGLRPALPRSELHKLISPLQCLNHVWKLHHPQDGGPLPLPTHPFPYSRLPHPFPFHPLQPWKPHPLESFLGKLACVDSQKPLPDPHLSKLACVDSPKPLPGPHLEPSCLSRGAHEKFSVEEYLVHALQGSVSSSQAHSLTSLAKTWAARGSRSREPSPKTEDNEGVLLTEKLKPVDYEYREEVHWATHQLRLGRGSFGEVHRMEDKQTGFQCAVKKVRLEVFRAEELMACAGLTSPRIVPLYGAVREGPWVNIFMELLEGGSLGQLVKEQGCLPEDRALYYLGQALEGLEYLHSRRILHGDVKADNVLLSSDGSHAALCDFGHAVCLQPDGLGKSLLTGDYIPGTETHMAPEVVLGRSCDAKVDVWSSCCMMLHMLNGCHPWTQFFRGPLCLKIASEPPPVREIPPSCAPLTAQAIQEGLRKEPIHRVSAAELGGKVNRALQQVGGLKSPWRGEYKEPRHPPPNQANYHQTLHAQPRELSPRAPGPRPAEETTGRAPKLQPPLPPEPPEPNKSPPLTLSKEESGMWEPLPLSSLEPAPARNPSSPERKATVPEQELQQLEIELFLNSLSQPFSLEEQEQILSCLSIDSLSLSDDSEKNPSKASQSSRDTLSSGVHSWSSQAEARSSSWNMVLARGRPTDTPSYFNGVKVQIQSLNGEHLHIREFHRVKVGDIATGISSQIPAAAFSLVTKDGQPVRYDMEVPDSGIDLQCTLAPDGSFAWSWRVKHGQLENRP | wild-type NIK and mutant NIK-S549A and NIK-T552A effectively phosphorylated the coimmunoprecipitated IKKα (K44M) protein in vitro | – |
| NIK-S549A (protein) MAVMEMACPGAPGSAVGQQKELPKPKEKTPPLGKKQSSVYKLEAVEKSPVFCGKWEILNDVITKGTAKEGSEAGPAAISIIAQAECENSQEFSPTFSERIFIAGSKQYSQSESLDQIPNNVAHATEGKMARVCWKGKRRSKARKKRKKKSSKSLAHAGVALAKPLPRTPEQESCTIPVQEDESPLGAPYVRNTPQFTKPLKEPGLGQLCFKQLGEGLRPALPRSELHKLISPLQCLNHVWKLHHPQDGGPLPLPTHPFPYSRLPHPFPFHPLQPWKPHPLESFLGKLACVDSQKPLPDPHLSKLACVDSPKPLPGPHLEPSCLSRGAHEKFSVEEYLVHALQGSVSSSQAHSLTSLAKTWAARGSRSREPSPKTEDNEGVLLTEKLKPVDYEYREEVHWATHQLRLGRGSFGEVHRMEDKQTGFQCAVKKVRLEVFRAEELMACAGLTSPRIVPLYGAVREGPWVNIFMELLEGGSLGQLVKEQGCLPEDRALYYLGQALEGLEYLHSRRILHGDVKADNVLLSSDGSHAALCDFGHAVCLQPDGLGKALLTGDYIPGTETHMAPEVVLGRSCDAKVDVWSSCCMMLHMLNGCHPWTQFFRGPLCLKIASEPPPVREIPPSCAPLTAQAIQEGLRKEPIHRVSAAELGGKVNRALQQVGGLKSPWRGEYKEPRHPPPNQANYHQTLHAQPRELSPRAPGPRPAEETTGRAPKLQPPLPPEPPEPNKSPPLTLSKEESGMWEPLPLSSLEPAPARNPSSPERKATVPEQELQQLEIELFLNSLSQPFSLEEQEQILSCLSIDSLSLSDDSEKNPSKASQSSRDTLSSGVHSWSSQAEARSSSWNMVLARGRPTDTPSYFNGVKVQIQSLNGEHLHIREFHRVKVGDIATGISSQIPAAAFSLVTKDGQPVRYDMEVPDSGIDLQCTLAPDGSFAWSWRVKHGQLENRP | wild-type NIK and mutant NIK-S549A and NIK-T552A effectively phosphorylated the coimmunoprecipitated IKKα (K44M) protein in vitro | – |
| NIK-T552A (protein) MAVMEMACPGAPGSAVGQQKELPKPKEKTPPLGKKQSSVYKLEAVEKSPVFCGKWEILNDVITKGTAKEGSEAGPAAISIIAQAECENSQEFSPTFSERIFIAGSKQYSQSESLDQIPNNVAHATEGKMARVCWKGKRRSKARKKRKKKSSKSLAHAGVALAKPLPRTPEQESCTIPVQEDESPLGAPYVRNTPQFTKPLKEPGLGQLCFKQLGEGLRPALPRSELHKLISPLQCLNHVWKLHHPQDGGPLPLPTHPFPYSRLPHPFPFHPLQPWKPHPLESFLGKLACVDSQKPLPDPHLSKLACVDSPKPLPGPHLEPSCLSRGAHEKFSVEEYLVHALQGSVSSSQAHSLTSLAKTWAARGSRSREPSPKTEDNEGVLLTEKLKPVDYEYREEVHWATHQLRLGRGSFGEVHRMEDKQTGFQCAVKKVRLEVFRAEELMACAGLTSPRIVPLYGAVREGPWVNIFMELLEGGSLGQLVKEQGCLPEDRALYYLGQALEGLEYLHSRRILHGDVKADNVLLSSDGSHAALCDFGHAVCLQPDGLGKSLLAGDYIPGTETHMAPEVVLGRSCDAKVDVWSSCCMMLHMLNGCHPWTQFFRGPLCLKIASEPPPVREIPPSCAPLTAQAIQEGLRKEPIHRVSAAELGGKVNRALQQVGGLKSPWRGEYKEPRHPPPNQANYHQTLHAQPRELSPRAPGPRPAEETTGRAPKLQPPLPPEPPEPNKSPPLTLSKEESGMWEPLPLSSLEPAPARNPSSPERKATVPEQELQQLEIELFLNSLSQPFSLEEQEQILSCLSIDSLSLSDDSEKNPSKASQSSRDTLSSGVHSWSSQAEARSSSWNMVLARGRPTDTPSYFNGVKVQIQSLNGEHLHIREFHRVKVGDIATGISSQIPAAAFSLVTKDGQPVRYDMEVPDSGIDLQCTLAPDGSFAWSWRVKHGQLENRP | wild-type NIK and mutant NIK-S549A and NIK-T552A effectively phosphorylated the coimmunoprecipitated IKKα (K44M) protein in vitro | – |
| NIK-T559A (protein) MAVMEMACPGAPGSAVGQQKELPKPKEKTPPLGKKQSSVYKLEAVEKSPVFCGKWEILNDVITKGTAKEGSEAGPAAISIIAQAECENSQEFSPTFSERIFIAGSKQYSQSESLDQIPNNVAHATEGKMARVCWKGKRRSKARKKRKKKSSKSLAHAGVALAKPLPRTPEQESCTIPVQEDESPLGAPYVRNTPQFTKPLKEPGLGQLCFKQLGEGLRPALPRSELHKLISPLQCLNHVWKLHHPQDGGPLPLPTHPFPYSRLPHPFPFHPLQPWKPHPLESFLGKLACVDSQKPLPDPHLSKLACVDSPKPLPGPHLEPSCLSRGAHEKFSVEEYLVHALQGSVSSSQAHSLTSLAKTWAARGSRSREPSPKTEDNEGVLLTEKLKPVDYEYREEVHWATHQLRLGRGSFGEVHRMEDKQTGFQCAVKKVRLEVFRAEELMACAGLTSPRIVPLYGAVREGPWVNIFMELLEGGSLGQLVKEQGCLPEDRALYYLGQALEGLEYLHSRRILHGDVKADNVLLSSDGSHAALCDFGHAVCLQPDGLGKSLLTGDYIPGAETHMAPEVVLGRSCDAKVDVWSSCCMMLHMLNGCHPWTQFFRGPLCLKIASEPPPVREIPPSCAPLTAQAIQEGLRKEPIHRVSAAELGGKVNRALQQVGGLKSPWRGEYKEPRHPPPNQANYHQTLHAQPRELSPRAPGPRPAEETTGRAPKLQPPLPPEPPEPNKSPPLTLSKEESGMWEPLPLSSLEPAPARNPSSPERKATVPEQELQQLEIELFLNSLSQPFSLEEQEQILSCLSIDSLSLSDDSEKNPSKASQSSRDTLSSGVHSWSSQAEARSSSWNMVLARGRPTDTPSYFNGVKVQIQSLNGEHLHIREFHRVKVGDIATGISSQIPAAAFSLVTKDGQPVRYDMEVPDSGIDLQCTLAPDGSFAWSWRVKHGQLENRP | failed to phosphorylate the coprecipitating IKKα | the mutant NIK-T559A failed to induce IKKα activity |
